The test system of one data set is IgE binding to rHev b 5. Description: Non-specific inhibition assay: IgE binding to rHev b 5. On the set-up: species or system human. Particulars: serum of latex-allergic, Hev b 5 positive subject (data not shown). The protocol:
To confirm the lack of IgE reactivity of mutant rHev b 6, inhibition ELISA were performed. In these assays, IgE binding to rHev b 6 was inhibited by preincubation of sera from latex allergic, Hev b 6 reactive subjects with either rHev b 6 or mutant rHev b 6 over a range of concentrations. To determine the level of non-specific inhibition inherent in such an assay, an initial non-specific inhibition assay was performed. The serum of a latex-allergic, Hev b 5 positive subject was incubated with rHev b 6 and mutant rHev b 6 and then the ability of IgE from this serum to bind rHev b 5 in an ELISA was measured. When this assay was undertaken, binding of IgE to rHev b5 was inhibited at a maximum of 20% by rHev b 6 and mutant rHev b 6 (data not shown).

Data set [1] has as its system Hev b 6-specific mAb 1A5.4. Description: Western blotting of rHev b 6 forms with Hev b 6-specific mAb (Example 8). In kind it is binding, mouse. The protocol:
FIG. 6 is an image of sulphonation abolishing the IgE reactivity of rHev b 6. rHev b 6 (A) and sulphonated rHev b 6 (B) were resolved by 16% SDS-PAGE under non-reducing conditions. Gels were either stained with Coomassie Brilliant Blue (1) or transferred to nitrocellulose. Strips with transferred protein were incubated with the Hev b 6-specific mAb 1A5.4 and binding detected (2). Strips with transferred protein were also incubated with sera from two latex allergic, Hev b 6 sensitized subjects (3 and 4) and one non-latex-allergic, atopic subject (5). The presence or absence of IgE binding was then detected. […] Plates were coated with rHev b 6 and sulphonated rHev b 6 and the presence or absence of IgE-binding detected. As a positive control the Hev b 6-specific mAb 1A5 was used. NB indicates no binding of IgE was detected.
Four μg of rHev b 6 or sulphonated rHev b 6 were separated on 16% sodium dodecyl sulphate (SDS) polyacrylamide gels with 4% stacking gel. Electrophoresis was performed at 125V for 2 h on a Novex Xcell II Mini-Cell system (Novex, CA, USA). Proteins were visualized with Coomassie Brilliant Blue R-250 (Sigma). The separated proteins were electrophoretically transferred to nitro-cellulose membranes (BA 0.45μ, Schleicher and Schuell, Dassel, Germany) at 25V for 1 hr in transfer buffer. Membranes were blocked for 1 h at RT in 10% skim milk powder (SMP) in PBS, washed once in 0.05% Tween20/PBS and twice in PBS. Washed membranes were incubated for 1 hour at RT with either culture supernatant containing the Hev b 6-specific mAb 1A5.4, diluted 1 in 100 in 1% SMP/PBS or human serum, diluted 1 in 5 in 1% SMP/PBS. For mAb detection membranes were washed as above and incubated for 1 h at RT with goat HRP-conjugated anti-mouse Ig (Silenus), diluted 1 in 2000 in 1% SMP/PBS. For IgE detection, membranes were incubated for 1 h at RT with rabbit anti-human IgE (Dako, Denmark) at 1 in 1000 dilution, followed by swine anti-rabbit IgG-HRP conjugate (Promega) at 1 in 1000 dilution. After washing, the binding of 1A5.4 mAb and patient serum IgE to rHev b 6 was detected using hydrogen peroxide/diaminobenzidine solution.
Background: In western blotting, separated proteins are transferred to a membrane and probed.

The format of data set [2] is physicochemical. The source says:
Recombinant Hev b 6 (rHev b 6): The cDNA encoding Hev b 6 was cloned from latex RNA (Beezhold, unpublished). The deduced amino acid sequence of this clone is identical to that of the Hev b 6 clone pDHPROH 6 in Rozynek P et al., 1998, Clinical and Experimental Allergy 28:1418-1426 and differed at amino acid 126 (Thr versus Ala) from the deduced amino acid sequence of the Hev b 6 clone pDHPROH 1-2 (Genbank entry AJ003196.1). It differs at amino acids 109 (Pro versus Ser) and 161 (Leu versus Ile) from the deduced amino acid sequence of the Hev b 6 clone HEV1 (Genbank entry M36986.1), isolated by Broekaert W, Lee H, Kush A, Chua N-H, Raikhel N. Wound-induced accumulation of mRNA containing a hevein sequence in laticifers of rubber tree (Hevea brasiliensis). Proc Natl Acad Sci USA 1990; 87:7633-7637. The Hev b 6 cDNA was subcloned into the pPROEX-Hta vector (Invitrogen, CA, USA) by the polymerase chain reaction (PCR) following our standardised methods (Sutherland et al., 2002, supra). Primers HEVB6F (5′-[…]-3′) (SEQ ID NO:22) and HEVB6R (5′-[…]-3′) (SEQ ID NO:23) were used for the PCR. The plasmid construct was transformed into E. coli strain BL21-CodonPlus® (DE3)-RIL competent cells (Stratagene, CA, USA) by the heat shock procedure (Sambruk et al., 1989, supra). […]

The mark [3] stands for this setting: reducing SDS-PAGE (data not shown).

This note sets out measurements from patent US20060233785A1, “Immunointeractive molecules and uses thereof” (priority 2001, published 2006).

B1: rHev b 6: recombinant Hev b 6 (prohevein) expressed in E. coli from pPROEX-HTa with 6-His tag (protein)
chain: EQCGRQAGGKLCPNNLCCSQWGWCGSTDEYCSPDHNCQSNCKDSGEGVGGGSASNVLATYHLYNSQDHGWDLNAASAYCSTWDANKPYSWRSKYGWTAFCGPVGAHGQSSCGKCLSVTNTGTGAKTTVRIVDQCSNGGLDLDVNVFRQLDTDGKGYERGHITVNYQFVDCGDSFNPLFSVMKSSVIN
modifications: left off: small tags and cut ends
notes: recombinant Hev b 6 (prohevein) expressed in E. coli from pPROEX-HTa with 6-His tag
Turning to B1, the “maximum inhibition of IgE binding to rHev b5 (non-specific)” value in the data set with IgE binding to rHev b 5 is 20%. For the same molecule, the “Hev b 6-specific mAb reactivity in Western blotting” value in data set [1] (non-reducing SDS-PAGE) and in data set [1] (setting [3]) was “reactive” in each case. For the same molecule, in data set [2], the solubility result is listed as “insoluble”.

B2: mutant rHev b 6: rHev b 6 with cysteine to alanine substitution at amino acid 3 of the mature protein (protein)
chain: EQAGRQAGGKLCPNNLCCSQWGWCGSTDEYCSPDHNCQSNCKDSGEGVGGGSASNVLATYHLYNSQDHGWDLNAASAYCSTWDANKPYSWRSKYGWTAFCGPVGAHGQSSCGKCLSVTNTGTGAKTTVRIVDQCSNGGLDLDVNVFRQLDTDGKGYERGHITVNYQFVDCGDSFNPLFSVMKSSVIN
modifications: left off: small tags and cut ends
notes: rHev b 6 with cysteine to alanine substitution at amino acid 3 of the mature protein
As for B2, the “maximum inhibition of IgE binding to rHev b5 (non-specific)” value in the data set with IgE binding to rHev b 5 is 20%.

B3: sulphonated rHev b 6: purified rHev b 6 sulphonated in sulphonation buffer to improve solubility (protein)
chain: EQCGRQAGGKLCPNNLCCSQWGWCGSTDEYCSPDHNCQSNCKDSGEGVGGGSASNVLATYHLYNSQDHGWDLNAASAYCSTWDANKPYSWRSKYGWTAFCGPVGAHGQSSCGKCLSVTNTGTGAKTTVRIVDQCSNGGLDLDVNVFRQLDTDGKGYERGHITVNYQFVDCGDSFNPLFSVMKSSVIN
modifications: left off: small tags and cut ends
Turning to B3, the “Hev b 6-specific mAb reactivity in Western blotting” value in data set [1] (non-reducing SDS-PAGE) and in data set [1] (setting [3]) was “reactive” in each case. For the same molecule, in data set [2], the solubility result is reported as “increased markedly”.
